Here are results for 36 molecules from patent US20260070987A1.

B1: equine IgG4 D312A (antibody, part only; not given: variable domains, not shown: another chain or arm of the molecule)
constant: ASTTAPKVFPLASHSAATSGSTVALGCLVSSYFPEPVTVSWNSGALTSGVHTFPSVLQSSGLYSLSSMVTVPASSLKSQTYICNVAHPASSTKVDKKIVIKECNGGCPAECLQVGPSVFIFPPKPKDVLMISRTPTVTCVVVDVGHDFPDVQFNWYVDGVETHTATTEPKQEQFNSTYRVVSVLPIQHKAWLSGKEFKCKVNNKALPAPVERTISKPTGQPREPQVYVLAPHRDELSKNKVSVTCLVKDFYPTDIDIEWKSNGQPEPETKYSTTPAQLDSDGSYFLYSKLTVETNRWQQGTTFTCAVMHEALHNHYTEKSVSKSPGK
B2: equine IgG4 D312L (antibody, part only; not given: variable domains, not shown: another chain or arm of the molecule)
constant: B1 constant with A190L
B3: equine IgG4 D312K (antibody, part only; not given: variable domains, not shown: another chain or arm of the molecule)
constant: B1 constant with A190K
B4: equine IgG4 Y436H (antibody, part only; not given: variable domains, not shown: another chain or arm of the molecule)
constant: B1 constant with A190D, Y316H
B5: equine IgG4 Y436C (antibody, part only; not given: Variable domains, not shown: another chain or arm of the molecule)
constant: B1 constant with A190D, Y316C
B6: equine IgG4 Y436G (antibody, part only; not given: variable domains, not shown: another chain or arm of the molecule)
constant: B1 constant with A190D, Y316G
B7: equine IgG4 D312G (antibody, part only; not given: variable domains, not shown: another chain or arm of the molecule)
constant: B1 constant with A190G
B8: equine IgG4 D312C (antibody, part only; not given: variable domains, not shown: another chain or arm of the molecule)
constant: B1 constant with A190C
B9: equine IgG4 D312H (antibody, part only; not given: Variable domains, not shown: another chain or arm of the molecule)
constant: B1 constant with A190H
B10: equine IgG4 Y436L (antibody, part only; not given: variable domains, not shown: another chain or arm of the molecule)
constant: B1 constant with A190D, Y316L
B11: equine IgG4 D312E (antibody, part only; not given: variable domains, not shown: another chain or arm of the molecule)
constant: B1 constant with A190E
B12: equine IgG4 D312Y (antibody, part only; not given: variable domains, not shown: another chain or arm of the molecule)
constant: B1 constant with A190Y
B13: equine IgG4 Y436N (antibody, part only; not given: variable domains, not shown: another chain or arm of the molecule)
constant: B1 constant with A190D, Y316N
B14: equine IgG4 Y436M (antibody, part only; not given: variable domains, not shown: another chain or arm of the molecule)
constant: B1 constant with A190D, Y316M
B15: equine IgG4 Y436I (antibody, part only; not given: variable domains, not shown: another chain or arm of the molecule)
constant: B1 constant with A190D, Y316I
B16: equine IgG4 Y436F (antibody, part only; not given: variable domains, not shown: another chain or arm of the molecule)
constant: B1 constant with A190D, Y316F
B17: equine IgG4 Y436E (antibody, part only; not given: variable domains, not shown: another chain or arm of the molecule)
constant: B1 constant with A190D, Y316E
B18: equine IgG4 D312T (antibody, part only; not given: variable domains, not shown: another chain or arm of the molecule)
constant: B1 constant with A190T
B19: equine IgG4 D312F (antibody, part only; not given: variable domains, not shown: another chain or arm of the molecule)
constant: B1 constant with A190F
B20: equine IgG4 Y436Q (antibody, part only; not given: variable domains, not shown: another chain or arm of the molecule)
constant: B1 constant with A190D, Y316Q
B21: equine IgG4 Y436A (antibody, part only; not given: variable domains, not shown: another chain or arm of the molecule)
constant: B1 constant with A190D, Y316A
B22: equine IgG4 D312N (antibody, part only; not given: variable domains, not shown: another chain or arm of the molecule)
constant: B1 constant with A190N
B23: equine IgG4 D312W (antibody, part only; not given: Variable domains, not shown: another chain or arm of the molecule)
constant: B1 constant with A190W
B24: equine IgG4 D312R (antibody, part only; not given: variable domains, not shown: another chain or arm of the molecule)
constant: B1 constant with A190R
B25: equine IgG4 Y436K (antibody, part only; not given: variable domains, not shown: another chain or arm of the molecule)
constant: B1 constant with A190D, Y316K
B26: equine IgG4 D312V (antibody, part only; not given: variable domains, not shown: another chain or arm of the molecule)
constant: B1 constant with A190V
B27: equine IgG4 D312I (antibody, part only; not given: Variable domains, not shown: another chain or arm of the molecule)
constant: B1 constant with A190I
B28: equine IgG4 Y436D (antibody, part only; not given: variable domains, not shown: another chain or arm of the molecule)
constant: B1 constant with A190D, Y316D
B29: equine IgG4 D312M (antibody, part only; not given: variable domains, not shown: another chain or arm of the molecule)
constant: B1 constant with A190M
B30: equine IgG4 D312Q (antibody, part only; not given: variable domains, not shown: another chain or arm of the molecule)
constant: B1 constant with A190Q
B31: equine IgG4 D312P (antibody, part only; not given: Variable domains, not shown: another chain or arm of the molecule)
constant: B1 constant with A190P
B32: equine IgG4 D312S (antibody, part only; not given: variable domains, not shown: another chain or arm of the molecule)
constant: B1 constant with A190S
B33: equine IgG1 T286R (antibody, part only; not given: variable domains, not shown: another chain or arm of the molecule)
constant: ASTTAPKVFALAPGCGTTSDSTVALGCLVSGYFPEPVKVSWNSGSLTSGVHTFPSVLQSSGFYSLSSMVTVPASTWTSETYICNVVHAASNFKVDKRIEPIPDNHQKVCDMSKCPKCPAPELLGGPSVFIFPPNPKDTLMITRTPEVTCVVVDVSQENPDVKFNWYMDGVEVRRATTRPKEEQFNSTYRVVSVLRIQHQDWLSGKEFKCKVNNQALPQPIERTITKTKGRSQEPQVYVLAPHPDELSKSKVSVTCLVKDFYPPEINIEWQSNGQPELETKYSTTQAQQDSDGSYFLYSKLSVDRNRWQQGTTFTCGVMHEALHNHYTQKNVSKNPGK
B34: equine IgG1 T286V (antibody, part only; not given: Variable domains, not shown: another chain or arm of the molecule)
constant: B33 constant with R174V
B35: equine IgG1 T286S (antibody, part only; not given: Variable domains, not shown: another chain or arm of the molecule)
constant: B33 constant with R174S
B36: equine IgG1 T286W (antibody, part only; not given: Variable domains, not shown: another chain or arm of the molecule)
constant: B33 constant with R174W

Positions count from the first letter of the chain named. Names and notes keep the numbering of the source.

The experiment has as its target equine FcRn (large alpha subunit p51) / equine beta-2-microglobulin complex, biotinylated (equine) (UniProt P30441). In words: SPR (Biacore), pH 6. For orientation: Surface plasmon resonance follows binding to a sensor surface in real time, without labels.
UniProt P30441, sequence (P30441 21-118, one chain of several): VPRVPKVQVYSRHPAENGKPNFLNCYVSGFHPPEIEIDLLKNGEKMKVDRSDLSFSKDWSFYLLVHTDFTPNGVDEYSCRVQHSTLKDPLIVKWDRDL
Usually Kd stands for the equilibrium constant for the complex coming apart. Read a low Kd as a tighter complex. Regarding B1, the Kd came out at 13.1 nM.
Under B2 stands 11.6 nM.
Under B3 stands 13.6 nM; under B4, 61.6 nM.
Then B5, with 57 nM; and B6, with 34.1 nM.
The molecule B7 had a Kd of 11.2 nM.
Then B8, with 27.1 nM.
Under B9 stands 20.2 nM; under B10, 16 nM.
Then B11, with 50.2 nM; and B12, with 19.1 nM.
With B13, the Kd came out at 49.8 nM.
Then B14, with 14.3 nM; and B15, with 12 nM.
For B16, the Kd was found to be 12.6 nM.
Then B17, with 91.5 nM; and B18, with 28.7 nM.
Under B19 stands 23 nM; under B20, 25.6 nM; under B21, 21.6 nM.
Then B22, with 16.1 nM; and B23, with 12.1 nM; and B24, with 18.5 nM.
B25 displayed a Kd of 20.3 nM.
Then B26, with 31.1 nM; and B27, with 29.4 nM.
Under B28 stands 25.5 nM.
B29 showed a Kd of 25 nM. The Kd values of the last two molecules are within 1.5-fold of each other.
B30 came in with a Kd of 28.1 nM. This Kd and that of the molecule before are within 1.5-fold of each other.
Molecule B31 had a Kd of 15.1 nM.
On to B32, for which the Kd turned out to be 17.4 nM.
Turning to B33, the Kd was 20.5 nM. The Kd values of the last two molecules are within 1.5-fold of each other.
The molecule B34 returned a Kd of 16.2 nM.
Under B35 stands 13.1 nM.
B36 returned a Kd of 18.4 nM.
